The assay concerns the target GFP-NAIP2 (mouse) (UniProt Q9QUK4). Nature of the assay: co-IP.
Chain of UniProt Q9QUK4 (Q9QUK4 whole entry): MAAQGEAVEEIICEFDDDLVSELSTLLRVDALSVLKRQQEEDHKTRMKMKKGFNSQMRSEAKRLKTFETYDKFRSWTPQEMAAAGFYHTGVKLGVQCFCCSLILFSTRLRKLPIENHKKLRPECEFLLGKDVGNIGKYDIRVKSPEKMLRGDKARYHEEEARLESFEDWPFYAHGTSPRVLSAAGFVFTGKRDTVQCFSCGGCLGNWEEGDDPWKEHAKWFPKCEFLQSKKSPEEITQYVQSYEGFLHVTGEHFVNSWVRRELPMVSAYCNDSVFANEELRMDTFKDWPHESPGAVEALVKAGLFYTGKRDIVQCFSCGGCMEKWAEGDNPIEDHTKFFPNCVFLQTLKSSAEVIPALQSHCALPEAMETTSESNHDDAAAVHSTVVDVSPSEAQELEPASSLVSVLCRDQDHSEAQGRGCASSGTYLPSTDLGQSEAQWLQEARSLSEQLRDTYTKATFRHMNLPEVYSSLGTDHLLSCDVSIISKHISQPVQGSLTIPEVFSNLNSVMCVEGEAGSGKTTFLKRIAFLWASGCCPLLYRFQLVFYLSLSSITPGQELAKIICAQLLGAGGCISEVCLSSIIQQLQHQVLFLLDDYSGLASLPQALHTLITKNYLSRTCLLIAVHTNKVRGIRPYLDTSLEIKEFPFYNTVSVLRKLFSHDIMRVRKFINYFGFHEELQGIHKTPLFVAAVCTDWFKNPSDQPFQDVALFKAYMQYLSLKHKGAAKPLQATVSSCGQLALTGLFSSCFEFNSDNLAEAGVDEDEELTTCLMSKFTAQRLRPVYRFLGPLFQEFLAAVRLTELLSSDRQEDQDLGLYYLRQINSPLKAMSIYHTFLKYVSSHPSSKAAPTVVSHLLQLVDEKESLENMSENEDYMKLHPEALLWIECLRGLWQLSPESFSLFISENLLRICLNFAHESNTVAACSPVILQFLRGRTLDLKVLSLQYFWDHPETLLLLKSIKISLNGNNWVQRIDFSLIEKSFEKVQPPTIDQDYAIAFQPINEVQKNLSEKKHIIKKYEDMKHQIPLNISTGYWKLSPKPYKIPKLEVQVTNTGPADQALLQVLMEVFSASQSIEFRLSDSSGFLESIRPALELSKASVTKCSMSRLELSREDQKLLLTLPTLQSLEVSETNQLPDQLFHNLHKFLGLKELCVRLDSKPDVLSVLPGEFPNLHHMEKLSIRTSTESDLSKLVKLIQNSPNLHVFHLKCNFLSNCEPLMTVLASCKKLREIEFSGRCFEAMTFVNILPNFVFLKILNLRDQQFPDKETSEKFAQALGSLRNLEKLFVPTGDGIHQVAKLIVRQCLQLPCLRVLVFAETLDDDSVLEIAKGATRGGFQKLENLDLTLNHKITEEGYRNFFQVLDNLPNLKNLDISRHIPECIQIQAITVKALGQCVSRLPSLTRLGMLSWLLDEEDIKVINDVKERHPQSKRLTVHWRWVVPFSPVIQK

“GFP-PrgJ (from UniProt P41785 1-101) (ligand)”: the stoichiometry N (ligand per NAIP) came to 1.

(Values after article PMC3988258.)
